Measured values published in patent US20200325237A1 (AVIDITY BIOSCIENCES, published 2020).

T1: TfR2 (transferrin receptor 2) (UniProt Q9UP52 105-801, limits assumed)
T1 sequence (looked up): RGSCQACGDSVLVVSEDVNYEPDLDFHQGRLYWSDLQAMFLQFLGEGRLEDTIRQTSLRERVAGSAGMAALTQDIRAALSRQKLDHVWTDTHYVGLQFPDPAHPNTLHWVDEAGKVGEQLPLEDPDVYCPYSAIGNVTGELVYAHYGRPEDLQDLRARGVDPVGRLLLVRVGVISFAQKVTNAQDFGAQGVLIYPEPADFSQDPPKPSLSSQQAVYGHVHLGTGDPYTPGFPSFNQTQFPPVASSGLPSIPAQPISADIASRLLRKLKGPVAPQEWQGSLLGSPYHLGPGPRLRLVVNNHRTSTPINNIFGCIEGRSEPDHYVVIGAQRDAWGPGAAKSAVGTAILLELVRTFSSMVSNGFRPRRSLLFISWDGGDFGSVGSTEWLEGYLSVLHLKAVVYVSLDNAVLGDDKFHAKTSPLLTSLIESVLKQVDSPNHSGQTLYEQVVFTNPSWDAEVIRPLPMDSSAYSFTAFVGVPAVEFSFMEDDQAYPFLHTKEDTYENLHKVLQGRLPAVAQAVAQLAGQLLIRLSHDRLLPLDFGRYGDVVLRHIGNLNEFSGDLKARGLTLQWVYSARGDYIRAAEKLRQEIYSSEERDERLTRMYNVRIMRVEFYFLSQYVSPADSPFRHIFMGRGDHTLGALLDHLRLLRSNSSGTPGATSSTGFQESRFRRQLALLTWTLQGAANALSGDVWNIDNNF


Tests used:
[1] = target: T2, recombinant cyno transferrin receptor protein (Sino Biological 90253-C07H) (cyno, UniProt H9EXL1 89-760 (rhesus entry)); assay: ELISA on plate-coated recombinant cyno TfR1 (CD71); fit: specific binding with Hill slope
T2 construct: Bought protein coated on ELISA plates; also called recombinant cyno TfR1; cynoTfR1
Experimental: (§1) Half-well high-binding 96-well plates (Costar #3690) were coated with recombinant human transferrin receptor protein (Sino Biological 11020-H07H) or recombinant cyno transferrin receptor protein (Sino Biological 90253-C07H) at 1 ng/μL in PBS (Gibco 14190) and incubated overnight at 4° C. Plates were washed four times with 100 μL of Tris buffered saline+Tween (20×TBST, Cell Signaling 9997S). 100 μL of Superblock (ThermoFisher PI-37535) was added to each well and incubated for 1 hour at room temperature. The wash step was repeated before the addition of the samples. Samples were added at concentrations up to 10 nM, 50 μL/well. Plates were incubated for another hour at room temp and wash step repeated. Secondary antibody (Peroxidase AffiniPure Goat Anti-Human IgG, Fcγ Fragment Specific, Jackson Immunoresearch, 109-035-098) was diluted 1:5000 in Superblock and 50 μL/well added. Plates were incubated for 1 hour at room temperature and washed one more time. Binding was measured by the addition of 50 μL of 1-Step™ Ultra TMB-ELISA (ThermoFisher, 34028), incubated for 5 minutes, and the reaction was stopped with the addition of 25 μL of Stop Solution 2N sulfuric Acid (R&D Systems DY994). Absorbance was measured at 450 nm, with reference wavelength 570 nm subtracted. Binding constants were determined using GraphPad Prism Specific Binding with Hill Slope.

[2] = target: T3, hTfR (human transferrin receptor, source and construct not stated) (human, UniProt P02786 89-760, limits assumed); assay: ELISA, biotinylated antibody on hTfR captured by plate-coated human holo-transferrin (Tf+TfR); fit: specific binding with Hill slope
Experimental: (§2) Antibodies were biotinylated using 50 fold molar excess of EZ-Link No weigh NHS-Biotin (Thermo Scientific A39256) following manufacturer's instructions. Half-well high-bind plates (Costar #3690) were coated with 500 ng/mL purified human holo-transferrin (R&D Systems 2914-HT) in PBS at 4° C. overnight. For comparison, plates were coated directly with hTfR. Plates were washed four times with 100 μL of Tris buffered saline+Tween (20×TBST, Cell Signaling 9997S). 100 μL of Superblock (ThermoFisher PI-37535) was added to each well and incubated for 1 hour at room temperature. The wash step was repeated before the addition of the hTfR (200 ng/mL in 25 μl) to the transferrin plates, or Superblock to the hTfR plates, and incubated for 30 minutes. Biotinylated antibodies were diluted to 20 nM for the high concentration and added to the plates with 3-fold serial dilution. 25 μl/well was added to the 25 μl already in the plate. Plates were incubated for 1 hour, and wash step was repeated. Streptavidin-HRP (R&D Systems DY998) was added following recommended dilution on the package insert, and a final wash step was done. Binding was measured by the addition of 50 μL of 1-Step™ Ultra TMB-ELISA (ThermoFisher, 34028), incubated for 5 minutes, and the reaction was stopped with the addition of 25 μL of Stop Solution 2N sulfuric Acid (R&D Systems DY994). Absorbance was measured at 450 nm, with reference wavelength 570 nm subtracted. Binding constants were determined using GraphPad Prism Specific Binding with Hill Slope. Change in antibody binding constants in the presence versus absense of transferrin is considered relative to the commercially available antibody which is known to have an overlapping epitope with transferrin (AF2474, R&D Systems).

[3] = target: T3, hTfR (human transferrin receptor, …); assay: ELISA, biotinylated antibody on hTfR captured by plate-coated HFE (HFE+TfR); fit: specific binding with Hill slope
[4] = target: T3, hTfR (human transferrin receptor, …); assay: ELISA; ratio of the Kd on HFE-captured hTfR to the Kd on directly coated hTfR
[5] = target: T4, recombinant human transferrin receptor protein (Sino Biological 11020-H07H) (human, UniProt P02786 89-760); assay: ELISA on plate-coated recombinant human TfR1 (CD71); fit: specific binding with Hill slope
T4 construct: Bought protein coated on ELISA plates; also called recombinant human TfR1; human TfR1
Experimental: as §1

[6] = target: T1, TfR2 (transferrin receptor 2); assay: A450 plate assay on TfR2 (method not described in the text)
[7] = target: T3, hTfR (human transferrin receptor, …); assay: ELISA; ratio of the Kd on transferrin-captured hTfR to the Kd on directly coated hTfR
Experimental: as §2

[8] = target: T3, hTfR (human transferrin receptor, …); assay: SPR (BioRad ProteOn XPR36), mAb captured on Protein A, hTfR as analyte, 25 C
Experimental: The binding kinetics of nine exemplary humanized anti-TfR antibodies and the parent chimeric antibody were characterized. Studies were run on a BioRad ProteOn XPR36 optical biosensor using a GLM sensor chip coated with Protein A for mAb capture. Running buffer included 10 mM EPES, 150 mM NaCl, pH 7.4 with 0.05 tween-20 with 0.2 mg/ml BSA. Data were collected at 25 degrees C. All mAbs were diluted into running buffer to 2 ug/ml based on the stock concentration provided. Each was then captured for 40 seconds over a Protein A surface.
hTfR (100 ug) was dissolved into […] of water to yield a 4.3 uM stock concentration. hTfR was dilted to 43 nM as the highest concentration and tested in a 3 fold dilution series. hTfR was injected at 200 ul/min for 2 minutes followed by a one-hour dissociation phase.

T2 sequence (chain, as listed by the source C07H C07H): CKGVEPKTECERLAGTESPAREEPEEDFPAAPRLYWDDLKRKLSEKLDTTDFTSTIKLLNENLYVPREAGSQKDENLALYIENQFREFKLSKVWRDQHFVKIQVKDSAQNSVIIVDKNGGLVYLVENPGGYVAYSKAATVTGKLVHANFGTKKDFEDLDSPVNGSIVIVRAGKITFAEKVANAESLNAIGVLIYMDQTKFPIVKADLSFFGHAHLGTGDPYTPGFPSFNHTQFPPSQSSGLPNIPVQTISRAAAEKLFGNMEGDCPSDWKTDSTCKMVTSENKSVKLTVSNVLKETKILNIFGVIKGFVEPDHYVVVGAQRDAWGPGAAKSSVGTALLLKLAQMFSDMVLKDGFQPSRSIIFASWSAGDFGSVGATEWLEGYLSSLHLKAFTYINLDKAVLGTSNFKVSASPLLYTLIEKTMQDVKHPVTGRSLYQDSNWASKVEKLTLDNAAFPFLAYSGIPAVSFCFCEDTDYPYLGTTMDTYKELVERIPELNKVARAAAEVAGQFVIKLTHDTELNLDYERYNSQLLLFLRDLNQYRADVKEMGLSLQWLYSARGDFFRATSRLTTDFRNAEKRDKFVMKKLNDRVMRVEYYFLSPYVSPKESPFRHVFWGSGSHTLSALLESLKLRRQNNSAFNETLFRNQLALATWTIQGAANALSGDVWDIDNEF
T4 sequence (P02786 89-760 limits assumed): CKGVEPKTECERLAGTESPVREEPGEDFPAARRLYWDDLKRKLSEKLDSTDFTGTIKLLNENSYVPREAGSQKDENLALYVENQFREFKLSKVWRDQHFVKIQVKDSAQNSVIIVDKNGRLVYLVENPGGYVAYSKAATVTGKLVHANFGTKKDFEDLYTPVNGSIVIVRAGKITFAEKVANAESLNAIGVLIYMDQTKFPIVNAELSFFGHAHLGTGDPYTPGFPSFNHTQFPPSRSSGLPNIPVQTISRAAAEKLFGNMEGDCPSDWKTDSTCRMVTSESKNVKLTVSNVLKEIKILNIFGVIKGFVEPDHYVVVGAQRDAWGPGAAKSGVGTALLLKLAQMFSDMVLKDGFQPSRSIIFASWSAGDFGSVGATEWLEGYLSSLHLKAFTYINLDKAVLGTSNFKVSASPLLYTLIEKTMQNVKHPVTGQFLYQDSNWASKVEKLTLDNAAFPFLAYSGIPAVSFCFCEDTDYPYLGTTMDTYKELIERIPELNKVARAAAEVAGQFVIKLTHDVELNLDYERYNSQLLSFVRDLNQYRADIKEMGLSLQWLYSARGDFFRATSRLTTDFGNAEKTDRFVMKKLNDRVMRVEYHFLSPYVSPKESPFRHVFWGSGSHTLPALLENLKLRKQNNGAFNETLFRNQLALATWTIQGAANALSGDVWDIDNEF
T3 sequence (P02786 89-760 limits assumed): as above

Row | Binder | Bmax [1] [% max binding] | Kd [1] [nM] | h [1] | Bmax [2] [A450] | Kd [2] [nM] | h [2] | Bmax [3] [A450] | Kd [3] [nM] | h [3] | Kd(HFE+TfR)/Kd(TfR) [4] | Bmax [5] [% max binding] | Kd [5] [nM] | h [5] | binding result [6] | Kd(Tf+TfR)/Kd(TfR) [7] | Kd [8] [nM] | koff [8] [s⁻¹] | kon [8] [M⁻¹ s⁻¹]
1 | 13E4-Variant 2i (antibody, human IgG1, kappa, L234A L235A, Humanized hIgG1 with Fc mutations; also called hIgG1 TfR-Var2i) heavy: not shown light: DIQMTQSPSSLSASVGDRVTITCRTSENIYNNLAWYQQKPGKSPKLLIYAATNLADGVPSRFSGSGSGTDYTLTISSLQPEDFATYYCQHFWGTPLTFGGGTKVEIKRTVAAPSVFIFPPSDEQLKSGTASVVCLLNNFYPREAKVQWKVDNALQSGNSQESVTEQDSKDSTYSLSSTLTLSKADYEKHKVYACEVTHQGLSSPVTKSFNRGEC | 93.1 | 0.012 | 1.56 | 3.48 | 0.0678 | 1.49 | 3 | 0.273 | 1.63 | 11.1 | 94.2 | 0.00817 | 1.35 | no binding (tested: 1000 nM) | 2.8 | 0.00043 | 3.9e-07 | 913000
2 | 13E4-Variant 2iii (antibody, human IgG1, kappa, L234A L235A, Humanized hIgG1 with Fc mutations; also called hIgG1 TfR-Var2iii) heavy: QVQLVQSGAEVKKPGASVKVSCKASGYTFTNYWMHWVRQAPGQGLEWIGEINPINGRSNYAEKFQGRVTLTVDTSSSTAYMELSRLRSDDTAVYYCARGTRAMHYWGQGTLVTVSSASTKGPSVFPLAPSSKSTSGGTAALGCLVKDYFPEPVTVSWNSGALTSGVHTFPAVLQSSGLYSLSSVVTVPSSSLGTQTYICNVNHKPSNTKVDKRVEPKSCDKTHTCPPCPAPEAAGGPSVFLFPPKPKDTLMISRTPEVTCVVVDVSHEDPEVKFNWYVDGVEVHNAKTKPREEQYNSTYRVVSVLTVLHQDWLNGKEYKCKVSNKARPAPIEKTISKAKGQPREPQVYTLPPSREEMTKNQVSLTCLVKGFYPSDIAVEWESNGQPENNYKTTPPVLDSDGSFFLYSKLTVDKSRWQQGNVFSCSVMHEALHNHYTQKSLSLSPG light: DIQMTQSPSSLSASVGDRVTITCRTSENIYNNLAWYQQKPGKSPKLLIYAATNLADGVPSRFSGSGSGTDYTLTISSLQPEDFATYYCQHFWGTPLTFGGGTKVEIKRTVAAPSVFIFPPSDEQLKSGTASVVCLLNNFYPREAKVQWKVDNALQSGNSQESVTEQDSKDSTYSLSSTLTLSKADYEKHKVYACEVTHQGLSSPVTKSFNRGEC | 94.3 | 0.0092 | 1.35 | 3.47 | 0.0522 | 1.61 | 2.66 | 0.289 | 1.26 | 11.9 | 95 | 0.00958 | 1.2 | no binding (tested: 1000 nM) | 2.1 | 0.00095 | 8.2e-07 | 862000
3 | 13E4-Variant 9i (antibody, human IgG1, kappa, L234A L235A, Humanized hIgG1 with Fc mutations; also called hIgG1 TfR-Var9i) heavy: not shown light: DIQMTQSPSSLSASVGDRVTITCRTSENIYNNLAWYQQKPGKAPKLLIYAATNLAEGVPSRFSGSGSGTDYTLTISSLQPEDFATYYCQHFWGTPLTFGGGTKVEIKRTVAAPSVFIFPPSDEQLKSGTASVVCLLNNFYPREAKVQWKVDNALQSGNSQESVTEQDSKDSTYSLSSTLTLSKADYEKHKVYACEVTHQGLSSPVTKSFNRGEC | 95 | 0.011 | 1.51 | 3.53 | 0.0559 | 1.45 | 2.79 | 0.341 | 1.37 | 13.6 | 95.7 | 0.00973 | 1.22 | no binding (tested: 1000 nM) | 2.2 | 0.00121 | 1.02e-06 | 843000
4 | 13E4-Variant 2ii (antibody, human IgG1, kappa, L234A L235A, Humanized hIgG1 with Fc mutations; also called hIgG1 TfR-Var2ii) heavy: QVQLVQSGAEVKKPGASVKVSCKASGYTFTNYWMHWVRQAPGQGLEWIGEINPINGRSNYAEKFQGRVTLTVDTSSSTAYMELSRLRSDDTAVYYCARGTRAMHYWGQGTLVTVSSASTKGPSVFPLAPSSKSTSGGTAALGCLVKDYFPEPVTVSWNSGALTSGVHTFPAVLQSSGLYSLSSVVTVPSSSLGTQTYICNVNHKPSNTKVDKRVEPKSCDKTHTCPPCPAPEAAGGPSVFLFPPKPKDTLMISRTPEVTCVVVDVSHEDPEVKFNWYVDGVEVHNAKTKPREEQYNSTYRVVSVLTVLHQDWLNGKEYKCGVSNKALPAPIEKTISKAKGQPREPQVYTLPPSREEMTKNQVSLTCLVKGFYPSDIAVEWESNGQPENNYKTTPPVLDSDGSFFLYSKLTVDKSRWQQGNVFSCSVMHEALHNHYTQKSLSLSPG light: DIQMTQSPSSLSASVGDRVTITCRTSENIYNNLAWYQQKPGKSPKLLIYAATNLADGVPSRFSGSGSGTDYTLTISSLQPEDFATYYCQHFWGTPLTFGGGTKVEIKRTVAAPSVFIFPPSDEQLKSGTASVVCLLNNFYPREAKVQWKVDNALQSGNSQESVTEQDSKDSTYSLSSTLTLSKADYEKHKVYACEVTHQGLSSPVTKSFNRGEC | 94.2 | 0.0127 | 1.58 | 3.53 | 0.0578 | 1.45 | 3.15 | 0.227 | 1.64 | 9.9 | 92.9 | 0.00964 | 1.43 | no binding (tested: 1000 nM) | 2.5 | 0.00049 | 4.3e-07 | 880000
